The values below come from the supplement of paper PMC11246515.

± gives the standard deviation of the averaged measurements.

The series in a line: total protein half-life in vivo (active degradation + dilution); higher = more stable protein.
[1] abbreviates: E. coli NCM3722 delta-clpP delta-lon delta-hslV, growth: N-lim chemostat, doubling time 6 h.
The mark [2] stands for this setting: E. coli NCM3722 delta-hslV, growth: N-lim chemostat, doubling time 6 h.
[3] abbreviates: E. coli NCM3722 delta-lon, growth: N-lim chemostat, doubling time 6 h.
The mark [4] stands for this setting: E. coli NCM3722 delta-smpB, growth: N-lim chemostat, doubling time 6 h.
The mark [5] stands for this setting: wild type E. coli NCM3722, growth: C-lim chemostat, doubling time 3 h.
[6] abbreviates: wild type E. coli NCM3722, growth: C-lim chemostat, doubling time 6 h.
The mark [7] stands for this setting: wild type E. coli NCM3722, growth: C-lim chemostat, doubling time 12 h.
[8] abbreviates: wild type E. coli NCM3722, growth: N-lim chemostat, doubling time 6 h.
Where [9] appears, read: wild type E. coli NCM3722, growth: N-lim chemostat, doubling time 12 h.
The mark [10] stands for this setting: wild type E. coli NCM3722, growth: P-lim chemostat, doubling time 6 h.
The mark [11] stands for this setting: wild type E. coli NCM3722, growth: P-lim chemostat, doubling time 12 h.
[12] abbreviates: E. coli NCM3722 delta-clpP, growth: N-lim chemostat, doubling time 6 h.

“MTTKRKPYVRPMTSTWWKKLPFYRFYMLREGTAVPAVWFSIELIFGLFALKNGPEAWAGFVDFLQNPVIVIINLITLAAALLHTKTWFELAPKAANIIVKDEKMGPEPIIKSLWAVTVVATIVILFVALYW [P0A8Q0]”: the “total protein half-life in vivo” value under setting [1] is 5.7 ± 0.4 h; the “total protein half-life in vivo” value under setting [2] is 5.78 ± 0.49 h; the “total protein half-life in vivo” value under setting [3] was found to be 6.06 ± 0.09 h; the “total protein half-life in vivo” value under setting [4] worked out at 6.13 ± 0.39 h; the “total protein half-life in vivo” value under setting [5] was determined as 2.81 ± 0.031 h; the “total protein half-life in vivo” value under setting [6] amounted to 5.55 ± 0.079 h. Further, the “total protein half-life in vivo” value under setting [7] is 10.9 ± 0.46 h; the “total protein half-life in vivo” value under setting [8] amounted to 5.63 ± 0.14 h; the “total protein half-life in vivo” value under setting [9] is 11.3 ± 1.9 h; the “total protein half-life in vivo” value under setting [10] is 5.09 ± 0.12 h; the “total protein half-life in vivo” value under setting [11] was determined as 12.5 ± 0.33 h.
“MIASKFGIGQQVRHSLLGYLGVVVDIDPVYSLSEPSPDELAVNDELRAAPWYHVVMEDDNGLPVHTYLAEAQLSSELQDEHPEQPSMDELAQTIRKQLQAPRLRN [P0AB20]”: the “total protein half-life in vivo” value amounted to 3.23 ± 0.48 h under setting [1] and 1.99 ± 0.27 h under setting [3].
On to “MQQQKPLEGAQLVIMTIALSLATFMQVLDSTIANVAIPTIAGNLGSSLSQGTWVITSFGVANAISIPLTGWLAKRVGEVKLFLWSTIAFAIASWACGVSSSLNMLIFFRVIQGIVAGPLIPLSQSLLLNNYPPAKRSIALALWSMTVIVAPICGPILGGYISDNYHWGWIFFINVPIGVAVVLMTLQTLRGRETRTERRRIDAVGLALLVIGIGSLQIMLDRGKELDWFSSQEIIILTVVAVVAICFLIVWELTDDNPIVDLSLFKSRNFTIGCLCISLAYMLYFGAIVLLPQLLQEVYGYTATWAGLASAPVGIIPVILSPIIGRFAHKLDMRRLVTFSFIMYAVCFYWRAYTFEPGMDFGASAWPQFIQGFAVACFFMPLTTITLSGLPPERLAAASSLSNFTRTLAGSIGTSITTTMWTNRESMHHAQLTESVNPFNPNAQAMYSQLEGLGMTQQQASGWIAQQITNQGLIISANEIFWMSAGIFLVLLGLVWFAKPPFGAGGGGGGAH [P0AEJ0]”, for which the “total protein half-life in vivo” value is 7.36 h under setting [1]; 6.64 ± 0.3 h under setting [12]; 6.52 ± 0.46 h under setting [2]; 5.94 h under setting [3]; 5.55 ± 0.64 h under setting [4]; 3.78 h under setting [5]. Besides, the “total protein half-life in vivo” value reads like this: under setting [7], greater than 16 h; under setting [10], 5.89 h; under setting [11], 10.4 ± 0.82 h.
On to “MSVSAFNRRWAAVILEALTRHGVRHICIAPGSRSTPLTLAAAENSAFIHHTHFDERGLGHLALGLAKVSKQPVAVIVTSGTAVANLYPALIEAGLTGEKLILLTADRPPELIDCGANQAIRQPGMFASHPTHSISLPRPTQDIPARWLVSTIDHALGTLHAGGVHINCPFAEPLYGEMDDTGLSWQQRLGDWWQDDKPWLREAPRLESEKQRDWFFWRQKRGVVVAGRMSAEEGKKVALWAQTLGWPLIGDVLSQTGQPLPCADLWLGNAKATSELQQAQIVVQLGSSLTGKRLLQWQASCEPEEYWIVDDIEGRLDPAHHRGRRLIANIADWLELHPAEKRQPWCVEIPRLAEQAMQAVIARRDAFGEAQLAHRICDYLPEQGQLFVGNSLVVRLIDALSQLPAGYPVYSNRGASGIDGLLSTAAGVQRASGKPTLAIVGDLSALYDLNALALLRQVSAPLVLIVVNNNGGQIFSLLPTPQSERERFYLMPQNVHFEHAAAMFELKYHRPQNWQELETAFADAWRTPTTTVIEMVVNDTDGAQTLQQLLAQVSHL”, for which the “total protein half-life in vivo” value runs as follows: under setting [1], 6.1 ± 0.64 h; under setting [12], 5.37 ± 0.1 h; under setting [2], 5.38 ± 0.24 h; under setting [4], 5.01 ± 0.12 h; under setting [5], 3.27 ± 0.59 h; under setting [6], 6.66 ± 0.06 h. The “total protein half-life in vivo” value by setting is: under setting [7], 12.2 ± 1.8 h; under setting [8], 5.89 ± 0.76 h; under setting [9], 12.3 ± 1.8 h; under setting [10], 6.81 ± 0.65 h.
In the case of “MNQIDRLLTIMQRLRDPENGCPWDKEQTFATIAPYTLEETYEVLDAIAREDFDDLRGELGDLLFQVVFYAQMAQEEGRFDFNDICAAISDKLERRHPHVFADSSAENSSEVLARWEQIKTEERAQKAQHSALDDIPRSLPALMRAQKIQKRCANVGFDWTTLGPVVDKVYEEIDEVMYEARQAVVDQAKLEEEMGDLLFATVNLARHLGTKAEIALQKANEKFERRFREVERIVAARGLEMTGVDLETMEEVWQQVKRQEIDL [P0AEY3]”, the “total protein half-life in vivo” value under setting [1] was found to be 4.85 ± 0.48 h; the “total protein half-life in vivo” value under setting [12] was found to be 4.1 ± 0.46 h; the “total protein half-life in vivo” value under setting [2] was 2.49 ± 0.062 h; the “total protein half-life in vivo” value under setting [3] worked out at 3.25 ± 0.4 h; the “total protein half-life in vivo” value under setting [4] came to 2.49 ± 0.12 h; the “total protein half-life in vivo” value under setting [5] amounted to 2.51 ± 0.056 h. The “total protein half-life in vivo” value is 5.06 ± 0.058 h under setting [6]; 6.42 ± 0.2 h under setting [7]; 2.624 ± 0.016 h under setting [8]; 3.29 ± 0.12 h under setting [9]; 3.61 ± 0.13 h under setting [10]; 6.14 ± 1.5 h under setting [11].
“MSSNTFTLGTKSVNRLGYGAMQLAGPGVFGPPRDRHVAITVLREALALGVNHIDTSDFYGPHVTNQIIREALYPYSDDLTIVTKIGARRGEDASWLPAFSPAELQKAVHDNLRNLGLDVLDVVNLRVMMGDGHGPAEGSIEASLTVLAEMQQQGLVKHIGLSNVTPTQVAEARKIAEIVCVQNEYNIAHRADDAMIDALAHDGIAYVPFFPLGGFTPLQSSTLSDVAASLGATPMQVALAWLLQRSPNILLIPGTSSVAHLRENMAAEKLHLSEEVLSTLDGISRE”: the “total protein half-life in vivo” value by setting is: under setting [1], 5.35 ± 0.76 h; under setting [12], 4.8 ± 0.14 h; under setting [2], 4.87 h; under setting [3], 4.74 ± 1 h; under setting [4], 4.18 ± 0.88 h; under setting [5], 3.27 ± 0.3 h. In addition, the “total protein half-life in vivo” value is, setting by setting: under setting [6], 5.527 ± 0.039 h; under setting [7], 10.8 ± 0.75 h; under setting [8], 5.01 h; under setting [9], 8.77 h; under setting [10], 6.443 ± 0.061 h; under setting [11], 12.2 ± 0.21 h.
For the sequence “MKISDGNWLIQPGLNLIHPLQVFEVEQQDNEMVVYAAPRDVRERTWQLDTPLFTLRFFSPQEGIVGVRIEHFQGALNNGPHYPLNILQDVKVTIENTERYAEFKSGNLSARVSKGEFWSLDFLRNGERITGSQVKNNGYVQDTNNQRNYMFERLDLGVGETVYGLGERFTALVRNGQTVETWNRDGGTSTEQAYKNIPFYMTNRGYGVLVNHPQCVSFEVGSEKVSKVQFSVESEYLEYFVIDGPTPKAVLDRYTRFTGRPALPPAWSFGLWLTTSFTTNYDEATVNSFIDGMAERNLPLHVFHFDCFWMKAFQWCDFEWDPLTFPDPEGMIRRLKAKGLKICVWINPYIGQKSPVFKELQEKGYLLKRPDGSLWQWDKWQPGLAIYDFTNPDACKWYADKLKGLVAMGVDCFKTDFGERIPTDVQWFDGSDPQKMHNHYAYIYNELVWNVLKDTVGEEEAVLFARSASVGAQKFPVHWGGDCYANYESMAESLRGGLSIGLSGFGFWSHDIGGFENTAPAHVYKRWCAFGLLSSHSRLHGSKSYRVPWAYDDESCDVVRFFTQLKCRMMPYLYREAARANARGTPMMRAMMMEFPDDPACDYLDRQYMLGDNVMVAPVFTEAGDVQFYLPEGRWTHLWHNDELDGSRWHKQQHGFLSLPVYVRDNTLLALGNNDQRPDYVWHEGTAFHLFNLQDGHEAVCEVPAADGSVIFTLKAARTGNTITVTGAGEAKNWTLCLRNVVKVNGLQDGSQAESEQGLVVKPQGNALTITL”, the “total protein half-life in vivo” value was found to be 5.8 h under setting [1]; 5.9 ± 0.59 h under setting [12]; 5.652 ± 0.053 h under setting [2]; 5.11 ± 0.41 h under setting [4]; 3.394 ± 0.019 h under setting [5]; 6.93 ± 0.64 h under setting [6]. Moreover, the “total protein half-life in vivo” value reads like this: under setting [7], 13 ± 0.71 h; under setting [8], 6.27 h; under setting [9], 12.7 ± 0.22 h; under setting [11], 11.5 ± 2.9 h.
Turning to “MPRFFTRHAATLFFPMALILYDFAAYLSTDLIQPGIINVVRDFNADVSLAPAAVSLYLAGGMALQWLLGPLSDRIGRRPVLITGALIFTLACAATMFTTSMTQFLIARAIQGTSICFIATVGYVTVQEAFGQTKGIKLMAIITSIVLIAPIIGPLSGAALMHFMHWKVLFAIIAVMGFISFVGLLLAMPETVKRGAVPFSAKSVLRDFRNVFCNRLFLFGAATISLSYIPMMSWVAVSPVILIDAGSLTTSQFAWTQVPVFGAVIVANAIVARFVKDPTEPRFIWRAVPIQLVGLSLLIVGNLLSPHVWLWSVLGTSLYAFGIGLIFPTLFRFTLFSNKLPKGTVSASLNMVILMVMSVSVEIGRWLWFNGGRLPFHLLAVVAGVIVVFTLAGLLNRVRQHQAAELVEEQ”, under setting [12], the “total protein half-life in vivo” value was found to be 7.03 h.
Regarding “MPLSPYLSFAGNCSDAIAYYQRTLGAELLYKISFGEMPKSAQDSAENCPSGMQFPDTAIAHANVRIAGSDIMMSDAMPSGKASYSGFTLVLDSQQVEEGKRWFDNLAANGKIEMAWQETFWAHGFGKVTDKFGVPWMINVVKQQPTQ”, the “total protein half-life in vivo” value reads like this: under setting [1], 4.69 ± 0.16 h; under setting [12], 4.35 ± 0.15 h; under setting [2], 5.15 ± 1.1 h; under setting [3], 6.806 ± 0.035 h; under setting [4], 4.57 ± 0.27 h; under setting [5], 3.13 ± 0.35 h. Further, the “total protein half-life in vivo” value by setting is: under setting [6], 5.29 ± 0.48 h; under setting [7], 10.04 ± 0.096 h; under setting [8], 4.31 ± 0.37 h; under setting [9], 8.56 ± 1.2 h; under setting [10], 5.88 ± 0.59 h; under setting [11], 12.4 ± 0.98 h.
Consider “MDIFISKKMRNFILLAQTNNIARAAEKIHMTASPFGKSIAALEEQIGYTLFTRKDNNISLNKAGQELYQKLFPVYQRLSAIDNEIHNSGRRSREIVIGIDNTYPTIIFDQLISLGDKYEGVTAQPVEFSENGVIDNLFDRQLDFIISPQHVSARVQELENLTISELPPLRLGFLVSRRYEERQEQELLQELPWLQMRFQNRANFEAMIDANMRPCGINPTIIYRPYSFMAKISAVERGHFLTVIPHFAWRLVNPATLKYFDAPHRPMYMQEYLYSIRNHRYTATMLQHIAEDRDGTSH”, for which the “total protein half-life in vivo” value runs as follows: under setting [1], 5.12 h; under setting [9], 9.66 h.
For the sequence “MIIIRYLVRETLKSQLAILFILLLIFFCQKLVRILGAAVDGDIPANLVLSLLGLGVPEMAQLILPLSLFLGLLMTLGKLYTESEITVMHACGLSKAVLVKAAMILAVFTAIVAAVNVMWAGPWSSRHQDEVLAEAKANPGMAALAQGQFQQATNGSSVLFIESVDGSDFKDVFLAQIRPKGNARPSVVVADSGHLTQLRDGSQVVTLNQGTRFEGTALLRDFRITDFQDYQAIIGHQAVALDPNDTDQMDMRTLWNTDTDRARAELNWRITLVFTVFMMALMVVPLSVVNPRQGRVLSMLPAMLLYLLFFLIQTSLKSNGGKGKLDPTLWMWTVNLIYLALAIVLNLWDTVPVRRLRASFSRKGAV [P0AF98]”, the “total protein half-life in vivo” value is, setting by setting: under setting [1], 6.78 ± 0.092 h; under setting [3], 6.05 ± 0.35 h; under setting [4], 6.02 ± 0.49 h; under setting [5], 3.17 ± 0.17 h; under setting [6], 5.94 ± 0.35 h; under setting [7], 10.4 h. The “total protein half-life in vivo” value is, setting by setting: under setting [8], 5.9587 ± 0.0048 h; under setting [9], 12.6 ± 0.32 h; under setting [10], 6.85 ± 0.98 h; under setting [11], 12.6 ± 0.65 h.
